According to US20110064751A1 (Hoffmann-La Roche, published 2011):
Substitutions are numbered along the chain they refer to.

T1: Human TNC-A1 + avi-tag + his6-tag (human, biotinylated in vivo at the avi-tag)
T1 chain: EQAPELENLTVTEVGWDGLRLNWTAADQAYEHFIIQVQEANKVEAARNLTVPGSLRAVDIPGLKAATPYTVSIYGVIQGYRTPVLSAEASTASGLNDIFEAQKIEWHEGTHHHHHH

B1: 2F11 Fab (Fab, V domains shown)
VH: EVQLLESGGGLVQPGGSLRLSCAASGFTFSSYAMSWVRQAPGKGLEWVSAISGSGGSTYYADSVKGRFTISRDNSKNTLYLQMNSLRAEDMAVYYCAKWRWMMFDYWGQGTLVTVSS
VL: EIVLTQSPGTLSLSPGERATLSCRASQSVSSSYLAWYQQKPGQAPRLLIYGASSRATGVPDRFSGSGSGTDFTLTISRLEPEDFAVYYCQQGQYTPPTFGQGTKVEIK
notes: Fab fragment; also called clone 2F11
B2: 4B8 Fab (Fab, V domains shown)
VH: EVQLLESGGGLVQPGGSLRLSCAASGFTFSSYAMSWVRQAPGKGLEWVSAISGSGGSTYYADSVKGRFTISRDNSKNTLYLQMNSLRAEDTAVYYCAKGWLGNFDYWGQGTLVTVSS
VL: B1 VL with V59I, Y94V, T95I
notes: Fab fragment; also called anti-murine FAP clone 4B8

Key:
[1] = target: T1, Human TNC-A1 + avi-tag + his6-tag; assay: phage display selection and ELISA on biotinylated human TNC-A1
Procedure: See SEQ ID NO: 59 of Table 5. The antigen was biotinylated in vivo upon expression.
Selections were carried out over 3 rounds using constant antigen concentrations at 100 nM. In round 2, capture of antigen:phage complexes was performed on neutravidin plates instead of streptavidin beads.

[2] = target: T2, Murine FAP ectodomain + poly-lys-tag + his6-tag (murine, UniProt P97321 27-761); assay: primary phage selections, ELISA and BIACORE kinetic screening
T2 construct: also called mu FAP
Procedure: See SEQ ID NOs: 53 and 55 of Table 5. Prior to selections, the antigens were coated into immunotubes at a concentration of either 10 μg/ml or 5 μg/ml, depending on round of selection.
Specific binders were defined as signals 5× higher than background and were identified by ELISA.
ELISA-positive clones were bacterially expressed as 1 mL cultures in 96-well format and supernatants were subjected to a kinetic screening experiment using BIACORE T100.

| Binder | binding result [1] | binding result [2] |
| --- | --- | --- |
| B1 | binds |  |
| B2 |  | binds |
